Reference: patent US20230399393A1, “METHODS TO EXTEND HEALTH-SPAN AND TREAT AGE-RELATED DISEASES” (National University of Singapore, priority 2020, published 2023)

Key:
C57Bl/6J mice [1] = assay: Analysis of organ fibrosis (hydroxyproline assay, Masson's trichrome); type: in vivo, mouse; details: at 110 weeks; heart, lung, kidney, skeletal muscle; vs IgG control antibody
Experimental: C57Bl/6J mice are randomised to receive either X203 or IgG control antibody at a dose of 40m/kg via IP injection every 3 weeks from age 55 weeks to age 110 weeks.
At 110 weeks, global tissue collagen content is evaluated in the heart, lung, kidney and skeletal muscle tissues by hydroxyproline assay. Tissue sections from these tissues are also subjected to Masson's trichrome staining and analysed by light microscopy (blinded to treatment group).

C57Bl/6J mice [2] = assay: Ageing pathways in tissues of old mice receiving X203, western blot and densitometry; type: in vivo, mouse; details: 110-week old mice
Experimental: The same results are observed in the gastrocnemii (FIGS. 45 and 46), solei (FIGS. 47 and 48) and abdominal fat (FIGS. 49 and 50) of old mice treated with X203.
(§1) Male and female C57Bl/6J mice aged 46 weeks were purchased from the Jackson Laboratory. Mice were randomised on a 1:1 basis to receive either 40 mg/kg of X203 or an isotype control IgG antibody (11E10), every 3 weeks (IP), starting from 55 weeks of age. Mice were sacrificed at 110 weeks of age for blood and tissues collection. 12 weeks old male and female C57Bl/6J mice that were used as control were purchased from Invivos (Singapore).
Western blots were carried out on total protein extracts from primary human cardiac fibroblasts (HCFs), hepatic stellate cells (HSCs), hepatocytes, livers, gastrocnemii, solei, and abdominal fats. Cell or tissue lysates were homogenized in RIPA Lysis and Extraction Buffer (89901, Thermo Scientific) containing protease and phosphatase inhibitors (Roche). Protein lysates were separated by SDS-PAGE, transferred to PVDF membranes, blocked for 1 h with 3% BSA, and incubated overnight with either phospho-ACC (11818, CST), ACC (3676, CST), phospho-AMPK (2535, CST), AMPK (5832, CST), phospho-ERK1/2 (4370, CST), ERK1/2 (4695, CST), GAPDH (2118, CST), phospho-LKB1 S428 (3482, CST), phospho-LKB1 (S325), LKB1 (3047, CST), (phospho-mTOR (2971, CST), mTOR (2972, CST), p16 (ab232402, Abcam), p21 (64016, CST), phospho-p70S6K (9205, CST), p70S6K (2708, CST), phospho-S6 ribosomal protein (4858, CST), or S6 ribosomal protein (2217, CST). All primary antibodies are diluted 1:1000 in 1% BSA. Protein bands were visualized using the ECL detection system (Pierce) with anti-rabbit HRP (1:2000 in 3% BSA, 7074, CST).

C57Bl/6J mice [3] = assay: In vivo administration of anti-IL11 (X203) to old mice, summary of multi-morbidity; design: species or system mouse; details: vs IgG
Source text: Furthermore, the data disclose that: • Administration of MEK1/2 inhibitor U0126 to cells stimulated with IL11 prevents ERK-mediated inactivation of LKB1/AMPK that stops IL11-induced mTORC1/P70S6K activation. • Administration of anti-IL11 (X203) vs IgG control to mice aged 55-110 weeks old results in lesser ERK activation, restored LKB1/AMPK activity and reduced mTORC1 activity and senescence markers (p16/p21). This is seen across tissues. • Mice deleted for IL11RA1 at 110 weeks old mirror the effects seen with X203 administration and have a signaling profile more similar to young mice, across tissues. • Administration of X203 vs IgG to old mice improves multi-morbidity with better serum levels of fats, glucose, lesser tissue fibrosis, better kidney function, reduced tissue inflammation, reduced obesity and lesser frailty. • Administration of X203 vs IgG to old mice improves markers of inflammation (CCL2, CCL5, TNFa, IL1b, IL11 and IL6)—an altered intercellular communication Hallmark of ageing—across tissues, including liver, kidney and skeletal muscle.
as §1, with “12 weeks old male and female C57Bl/6J mice that were used as control were purchased from Invivos (Singapore).” left out

C57BL6/J mice = assay: Inflammatory markers in liver, kidney and muscle of old mice (QPCR); type: in vivo, mouse; details: 40 mg/kg once every three weeks, vs IgG
Experimental: (§2) FIG. 52. A neutralizing IL-11 antibody reduces multiple markers of inflammation in kidneys of old mice. Wild-type C57BL6/J mice were treated with an intra-peritoneal injection of anti-IL11 (X203; 40 mg/kg, once every three weeks) or an isotype IgG control (11E10, 40 mg/kg, once every three weeks) from 55 weeks of age until 110 weeks of age. 110 week-old mice were sacrificed and organs harvested, snap frozen and RNA extracted using standard procedures. Samples were analyzed by quantitative RT-PCR (QPCR) using primers specific for Ccl2, Ccl5, Tnfα, Il1β, Il11, Il6 or Gapdh.
as §2, with “53.” for “52.”, “livers” for “kidneys”
as §2, with “54.” for “52.”, “skeletal muscle (soleus)” for “kidneys”, “sacrificed,” for “sacrificed”, “Gapdh. […]” for “Gapdh.”
Total RNA was extracted from AML12 or snap-frozen tissues using Trizol (Invitrogen) and RNeasy Mini Kit (Qiagen). […] Expression data were normalized to GAPDH mRNA expression and fold change was calculated using 2^−ΔΔct method.

[4] = compared with the liver results

B1: X203: mouse anti-mouse IL-11 IgG antagonist antibody; VH SEQ ID NO:22, VL SEQ ID NO:23 (antibody, V domains shown)
VH: EVQLQQSGPELVKPGASVKIPCKASGYTFTDYNMDWVKQSHGKSLEWIGDINPHNGGPIYNQKFTGKATLTVDKSSSTAYMELRSLTSEDTAVYYCARGELGHWYFDVWGTGTTVTVSS
VL: DIVLTQSPASLAVSLGQRATISCRASKSVSTSGYSYIHWYQQKPGQPPKLLIYLASNLDSGVPARFSGSGSGTDFTLNIHPVEEEDAATYYCQHSRDLPPTFGGGTKLEIK
fibrosis in the tissues analysed (C57Bl/6J mice [1]): less | ERK/LKB1/mTORC1 activity, AMPK activity, p16 and p21 expression in gastrocnemii (C57Bl/6J mice [2]; [4]): same results | ERK/LKB1/mTORC1 activity, AMPK activity, p16 and p21 expression in solei (C57Bl/6J mice [2]; [4]): same results | AMPK activity in livers (C57Bl/6J mice [2]; vs IgG control): more | ERK/LKB1/mTORC1 activity in livers (C57Bl/6J mice [2]; vs IgG control): less | expression of key senescence markers (p16 and p21) in livers (C57Bl/6J mice [2]; vs IgG control): less | multi-morbidity (serum levels of fats, glucose, tissue fibrosis, kidney function, tissue inflammation, obesity, frailty) (C57Bl/6J mice [3]): improves | markers of inflammation (CCL2, CCL5, TNFa, IL-1 b, IL-11 and IL-6) in kidney (C57BL6/J mice): reduces | markers of inflammation (CCL2, CCL5, TNFa, IL-1 b, IL-11 and IL-6) in liver (C57BL6/J mice): reduces | markers of inflammation (CCL2, CCL5, TNFa, IL-1 b, IL-11 and IL-6) in skeletal muscle (C57BL6/J mice): reduces
